Results as given in the supplement of paper PMC9170038.

Test system: MS2 coat protein
Assay: apparent KD of MS2 coat protein; higher = weaker reporter binding
Conditions: Eterna round: R107
In short: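 Titrations with SNAP-549-labelled MS2 coat protein ran in twofold steps from 0.7 or 1.5 nM to 3 µM, each step taking 0.8–1.5 h at the start and 10–20 min toward the end. The targets were designed RNA switches transcribed on-chip from Illumina sequencing clusters, held in 100 mM Tris-HCl pH 7.5, 80 mM KCl, 4 mM MgCl2, without or with constant ligand. Apparent KD was taken per design as the median of normalised cluster binding-curve fits.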

[1] = input ligand: theophylline 20 uM
[2] = input ligand: tryptophan 2.4 mM
[3] = input ligand: theophylline 2 mM

Row | Sequence | apparent KD of MS2 coat protein (input ligand: arginine 13.2 mM) | apparent KD of MS2 coat protein [1] | apparent KD of MS2 coat protein [2] | apparent KD of MS2 coat protein [3] | apparent KD of MS2 coat protein (input ligand: none)
1 | AGAUCGCUGACCGCGGGAGAUGCGCAGGAUACCAGCCUAAUGUCCGGCCCUUGGCAGCCUGUAACAUGAGGAUCACCCAUGUGAA [theeternabot_exclusion_MS2_Theo_A_29] | 15 nM | 20.9 nM | 18.1 nM |  | 
2 | AGAUCUUUCGAAAGAAGGAUAAUGGCUGAUACCAGAGACGAAAGUCUCCCUUGGCAGCAGUGCCAACAUGAGGAUCACCCAUGUA [Theophylline A 14] | 110 nM | 164 nM | 178 nM |  | 
3 | AGAUCUUUCGAAAGAAGGAUCUUGGCUGAUACCAGAGACGAAAGUCUCCCUUGGCAGCAGUGCCAACAUGAGGAUCACCCAUGUA [Theophylline A 13] | 35 nM | 49.9 nM | 42.9 nM |  | 
4 | AGAUGAGUCACGGCCGCCACUCACUUCAGGUUCACCCUUGGUUAACAUGAGGAUCACCCAUGUGGGAGGACCGGGUGAUGAGCAU [XTryp B #3] | 11.8 nM | 23.8 nM |  | 25.3 nM | 
5 | AGAUGUAGCGGAAGGAGCGACAUGAGGAUCACCCAUGUCUCCCGUUAUGGGAGUUCCUUAGGUCAGGUAGGUCGCCGUUACGUCA [Omei Arg B SS B v1] | 105 nM | 143 nM | 105 nM | 226 nM | 146 nM
6 | AGAUGUAGCGGAAGGAGCGACAUGAGGAUCACCCAUGUCUCCCGUUGUGGGAGUUCCUUAGGUCAGGUAGGUCGCCGUUACGUCA [Omei Arg B SS B v2] | 121 nM | 153 nM | 132 nM | 259 nM | 230 nM
7 | AGAUUAAAGAGUGAUACCAGACUACAUGAGGAUCACCCAUGUUACAUUUGAGUAGCUUUAGUCCCUUGGCAGCACUUUAUGUACA [JR_Nu_ExcTheophyB_Sub023] | 45.4 nM | 42.9 nM | 54.2 nM |  | 
8 | AGAUUCGACACGGCCGCCACUCGUGCCGGAUUACCGAGUGUCGAACAUGAGGAUCACCCAUGUACGAGGACCGGGUGUUGAGUCU [XTryp B #17] | 35.1 nM | 53.9 nM |  | 48.1 nM | 
9 | AGAUUCGACACGGCCGCCACUUGGAGUGGCUGCUAGCAUGUUACACAUGAGGAUCACCCAUGUCUAAGGACCGGGUGUUGAGUCU [XTryp B #24] | 30.7 nM | 79.2 nM |  | 63.5 nM | 
10 | AGAUUUAUUCUGACCGGGCUCAUUCCUGAAGGAGCGCAGAACAAUGCAGGUAGGUCGCAGGACAUGAGGAUCACCCAUGUCAGGC [Inmainzais] | 15.5 nM | 30.2 nM | 24.6 nM | 27.2 nM | 22.1 nM
11 | AGCAACAAGUCGGCCGCCACUCAUAUUACAUGAGGAUCACCCAUGUUUACAUCAAGGUCAUAAUAGAGGACCGGGACAGUUGCAU [JR_SSTryptoB_Sub017] | 24.5 nM | 39.3 nM |  | 41.5 nM | 
12 | AGCACUGUGACGGCCGCCACUACAUAAGUUGGGUGGUCAGGUUCAUUACAUGAGGAUCACCCAUGUAGGACCGGGUCUCAGUGCA [Omei Trp Exc B A v9] | 9.36 nM | 15.7 nM | 10.3 nM | 12.8 nM | 11.2 nM
13 | AGCAUUGUAACAGAUACCAGACUUUUAAUGCCUCUAAUUACAUGAGGAUCACCCAUGUUUGUCCCUUGGCAGCUGUUAUGAUGCA [JR_ExcTheophyB_Sub009] | 84.1 nM | 174 nM | 125 nM |  | 
14 | AGCCAUGGAAACAUGGCGGCGGCAUGAGCGCGAGGACCGGUACGGCCGCCACUCGGGCGACAUGAGGAUCACCCAUGUUCCUCAA [ETA NP+V+V2 #21] | 27.2 nM | 54.1 nM | 340 nM | 38.2 nM | 27.5 nM
15 | AGCCCGUGAGCGGCCGCCACUGGAGGCUUUGCGCGACAUGAGGAUCACCCAUGUGUGCCCGGCGUUAGGACCGGGCUCACGUGGU [#1 Same State - Tryptophan B Attempt #20 (HarryS)] | 43.8 nM | 302 nM | 110 nM | 288 nM | 182 nM
16 | AGCCCUGUGCUAGAUACCAGCUACAUGAGGAUCACCCAUGUGCGUCAGAAAUGACUGUGUAGCCCUUGGCAGCUACUCGCAUGUA [Exclusion - Theophylline B (Freestyle 6)] | 13 nM | 20.2 nM | 13.5 nM |  | 
17 | AGCCCUGUGCUAGAUACCAGCUACAUGAGGAUCACCCAUGUGCGUCAGGACUGACUGUGUAGCCCUUGGCAGCUACUCGCAUGUA [Exclusion - Theophylline B (Freestyle 5)] | 14.4 nM | 20 nM | 14.5 nM |  | 
18 | AGCCGAAACCUUGAUACCAGAUCAUGCUGCACAUGAGGAUCACCCAUGUCGUUAAACAUGGUCCCUUGGCAGCAAGUUAGGAUCU [Usustiusso] | 114 nM | 161 nM | 103 nM |  | 
19 | AGCCGAACCACGGCCGCCACUGUAGACGUGACGAAAGUCGCGUCAACAUGAGGAUCACCCAUGUACAGGACCGGGUGGUCCGGCA [Omei Trp B SS A v2] | 9.09 nM | 11.2 nM | 6.75 nM | 8.09 nM | 8.68 nM

Row | Sequence | apparent KD of MS2 coat protein (input ligand: arginine 13.2 mM) | apparent KD of MS2 coat protein [1] | apparent KD of MS2 coat protein [2] | apparent KD of MS2 coat protein [3] | apparent KD of MS2 coat protein (input ligand: none)
20 | AGCCGCGUUCUUUCUUUCUUUCUAGCGGCACGAGGACCGGUACGGCCGCCACUCGAAGACAUGAGGAUCACCCAUGUAGUGGGUA [The Second Ring] | 47.4 nM | 142 nM | 206 nM | 109 nM | 123 nM
21 | AGCCGGAUUACGGCCGCCACUGUAGACGUGACGAAAGUCGCGUCAACAUGAGGAUCACCCAUGUACAGGACCGGGUGGUCAGGCG [Omei Tryp B SS A v4] | 108 nM | 432 nM |  | 464 nM | 
22 | AGCCUCAUACAUGAGGAUCACCCAUGUGAUACCAGUCAGGAAACUGACCCUUGGCAGCGCAUGAGGAUCACCCAUGCGCGAGGCA [Omei Theo A Exc A v1] | 40.1 nM | 123 nM | 36.8 nM |  | 
23 | AGCCUCAUACAUGAGGAUCACCCAUGUGAUACCAGUCAGGAAACUGACCCUUGGCAGCGCAUGAGGAUCACCCAUGUGCGAGGCA [Omei Theo A Exc A v2] | 25.1 nM | 171 nM | 32.9 nM |  | 
24 | AGCGACAUGAGGAUCACCCAUGUACAUUCCCGAGGACCGGUACGGCCGCCACUCGAUGGAAGUGGUAGCAGCUUGGAUGGGCCUA [theeternabot_sameState_MS2_Trp_A_23] | 14.5 nM | 20 nM |  | 17.8 nM | 
25 | AGCGACAUGCAUGAUACCAGCUACAUGAGGAUCACCCAUGUACGUCAGUAAUGACUGUGUAGCCCUUGGCAGCAUAGAGCAUGUC [Exclusion - Theophylline B (Freestyle 16)] | 14.3 nM | 28.8 nM | 17.3 nM |  | 
26 | AGCGACAUGCGUGAUACCAGCUACAUGAGGAUCACCCAUGUAAGUAGGAAACUACUGUGUAGCCCUUGGCAGCACAGUGCAUGUC [Exclusion - Theophylline B (Freestyle 23)] | 10.3 nM | 14 nM | 10.8 nM |  | 
27 | AGCGACAUGCGUGAUACCAGCUACAUGAGGAUCACCCAUGUAAGUAGGAAACUACUGUGUAGCCCUUGGCAGCAUAGUGCAUGUC [Exclusion - Theophylline B (Freestyle 22)] | 13.4 nM | 23.5 nM | 15 nM |  | 
28 | AGCGGAACGGAAGGGUCCCAAAAUUGUGAUACCAGCCUUGAAUCCGGCCCUUGGCAGCACAUGAGGAUCACCCAUGUACUGCGGU [Celate] | 11.1 nM | 24.6 nM | 14.4 nM | 123 nM | 11 nM
29 | AGCGGCUCGAAAGAGUCGCACUCAUGUGAAGGAGCGCCCGUUAGGGCAGGUAGGUCGCACAUGAGGAUCACCCAUGUACCUUCUA [MAT - Exclusion Arginine A - Mod of Eli - D19] | 53.1 nM | 282 nM | 140 nM | 312 nM | 196 nM
30 | AGCGUAUAGACGGAUACCAGCGCCAAUUAACAUGAGGAUCACCCAUGUAGUGUGGGUGGACGCCCUUGGCAGCCGAGUAUAGGUA [Exclusion - Theophylline B / A] | 57.3 nM | 274 nM | 250 nM |  | 
31 | AGCGUUCAGCUUAUACUGGACAAUGGGUGACGAGGACCGGUACGGCCGCCACUCGGGCGCCCGGUUACAUGAGGAUCACCCAUGU [Vedizaus] | 52.2 nM | 213 nM | 20.5 nM | 212 nM | 195 nM
32 | AGCUCGCUUCCUCAAGCGUCAAAGACGCGUCGAGGACCGGUACGGCCGCCACUCGACCUGAGGAUCACCCGGGUCUAAGCGAGCA [TrypAX 8 #SwitchBubble #AlternativeMS2 #MS2Late #CuTurnoff] | 45.8 nM | 136 nM | 325 nM | 177 nM | 115 nM
33 | AGGACUUGCGUUCAAAAUCCCAUGUUGGAAGGAGCGCAUAUAGUUGCAGGUAGGUCGCCGACAUGAGGAUCACCCAUGUCUUUUC [Zasorequer] | 36 nM | 43.8 nM | 35.2 nM | 40.5 nM | 40.3 nM
34 | AGUACUCGAACGGAUACCAGCCGGACAUGAGGAUCACCCAUGUCCUACCAAUGUUCGGUUGGCCCUUGGCAGCCGUUCGUGUACA [Omei Theo B SS A v5] | 99.5 nM | 404 nM | 599 nM |  | 
35 | AGUAGUUGACAAAAGUCAGCUACAACUGAAGGAGCGGGUGGGUGCCCAGGUAGGUCGCGGAAACAUGAGGAUCACCCAUGUAUAA [ArgAS 1 #BothOrNeither #OpenEnded] | 37.3 nM | 19.4 nM | 21.7 nM | 21.7 nM | 13.1 nM
36 | AGUCUUAUAGGAAGGAGCGCAUACUUCACAUGAGGAUCACCCAUGUCAAGACGUGAGUCAAUGCAGGUAGGUCGCCUAACUAAGA [Same State - Arginine B (Freestyle 12)] | 18 nM | 20.4 nM | 14.6 nM | 17.7 nM | 18.8 nM
37 | AGUCUUAUAGGAAGGAGCGCAUACUUCACAUGAGGAUCACCCAUGUCAAGGAGUGAGUCAAUGCAGGUAGGUCGCCUAACUAAGA [Same State - Arginine B (Freestyle 10)] | 38.6 nM | 112 nM | 88.3 nM | 139 nM | 108 nM
